Experimental data published in article PMC3591269.

Target: MINI3 (WRKY10) (Arabidopsis) (UniProt Q9LG05)
Experiment: competition
Details: 25 mM Hepes-KOH pH 7.2, 40 mM KCl, 1 mM DTT, 1 mM EDTA, 10% glycerol, 0.01 uM ZnCl2, 2 ug poly-dIdC, 3 ng probe, 1 ug protein in 20 ul; room temperature …

MINI3 (WRKY10) (Arabidopsis), sequence (Q9LG05 whole entry): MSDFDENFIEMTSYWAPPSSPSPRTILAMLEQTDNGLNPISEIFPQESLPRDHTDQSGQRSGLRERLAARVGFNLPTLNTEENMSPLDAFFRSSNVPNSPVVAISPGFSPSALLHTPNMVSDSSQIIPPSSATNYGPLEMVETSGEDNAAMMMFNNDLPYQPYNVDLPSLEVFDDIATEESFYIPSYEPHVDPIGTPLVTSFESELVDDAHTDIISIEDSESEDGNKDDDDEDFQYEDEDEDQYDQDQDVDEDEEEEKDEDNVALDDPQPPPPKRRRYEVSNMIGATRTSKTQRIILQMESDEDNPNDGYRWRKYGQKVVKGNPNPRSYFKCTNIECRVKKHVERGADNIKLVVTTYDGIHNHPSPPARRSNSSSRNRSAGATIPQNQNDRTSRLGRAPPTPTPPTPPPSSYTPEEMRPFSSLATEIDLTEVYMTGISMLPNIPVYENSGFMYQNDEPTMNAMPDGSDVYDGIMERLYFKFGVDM

GACATTACTGTCATCGTATATGAAACATTATTCTAATAATTGTTATAAAAATACCGGAGTTAAACTAGATTGATTATCACCGAGATTTTATATTTGTCAAGATATATAGATGGTCCATCGAAAGGATTGGTGCTTCCAAAACCTTCGATGTCACCTCCTGA (double strand) [W3-box fragment (MINI3 promoter)]
binding: binds

GACATTACTGTCATCGTATATGAAACATTATTCTAATAATTGTTATAAAAATACCGGAGTTAAACTAGATTGATTATCACCGAGATTTTATATTTGTCTAGATATATAGATGGTCCATCGAAAGGATTGGTGCTTCCAAAACCTTCGATGTCACCTCCTGA (double strand) [mW3-box fragment]
binding: binds
